Where two headings read alike, the source gives them in different places.

What all share (experiment): ELISA, supernate
Experiment [1] addresses first-generation H1 LAH construct H1frThrST (Influenza A virus (H1)).
For experiment [2], the target named is first-generation H3 LAH construct H3frThrST (Influenza A virus (H3)).
The target of experiment [3] is first-generation H1 LAH construct H1frThrST (Influenza A virus (H1)). The source holds these as a separate data set.

B1: mAb 5I17 (antibody, V domains shown)
VH: EVQLVESGGGVVQPGRSLRLSCAASGFSFSNYAMHWVRQAPGKGLEWVALISFDGSDKYYADSVKGRFTMSRDNSKNTLYLQMNSLRAEDTAVYYCARDEPYCGGDCFAFDVWGQGTMVTVS
VL: DIQLTQSPSSLSASAGDRVSMTCRASQIISSSLNWYQQKPGKAPKLLIYAASNLQSGVPSRFSGSGSGTDFTLTISSLQPEDFATYYCQQSYSTPPELTFGGGTKVDIKR
B1: the OD in experiment [1] was found to be 0.078 OD; in experiment [2], 0.07 OD; in experiment [3], 0.07 OD.

Values taken from patent US20130289246A1.
